In paper PMC11111636 (EJNMMI Radiopharmacy and Chemistry, 2024):

Legend:
[1] = Procedure: Distribution coefficient was determined by a shake-flask method. […] The vial was vortexed vigorously and then centrifuged at 10,000 rpm for 10 min for phase separation. Samples (100 μL) of the n-octanol and aqueous phases were taken and measured in the gamma counter. LogD7.4 value was calculated by using the following equation: LogD7.4 = log [(counts in n-octanol phase)/(counts in aqueous phase)]. Measurements were performed in triplicates.
[2] = In vitro stability in PBS (radio-HPLC); assay type: physicochemical; settings: 37 °C; for PBS (%) intact labeled ligand: n = 1
[3] = system: H69-xenograft Balb/c nu/nu mice; assay: Ex vivo biodistribution in H69-tumor bearing mice; settings: for Tumor uptake lower than the tumor uptake of [111In]In-DOTA-TATE: P < 0.05
Procedure: (§1) Six-week‐old female Balb/c nu/nu‐specific mice (Janvier Labs, Le Genest‐Saint‐Isle, France) were housed in individually ventilated cages (4 mice/cage). Upon arrival, mice were acclimated for one week, with access to food and water ad libitum. Mice were subcutaneously inoculated on the right shoulder with NCI-H69 cells (5 × 10^6 cells) suspended in 100 μL of 1/3 Matrigel (Corning Inc.; Corning, NY, USA) and 2/3 Hank’s balanced salt solution (Gibco; Paisley, UK). NCI-H69 xenografts were allowed to grow for 2 weeks.
(§2) At 3 selected time points (1, 4 and 24 h; n = 4) p.i., blood was collected via retro-orbital puncture under isoflurane/O2 anesthesia, after which the mice were sacrificed via cervical dislocation. The tumor and organs of interest (heart, lungs, liver, spleen, stomach, large intestine, small intestine, pancreas, kidneys, muscle, skin, bone) were excised, washed in PBS and blotted dry. […] To determine the total injected radioactivity per animal, a calibration curve with indium-111 was established using the gamma counter. The percentage of injected dose per gram (% ID/g) was determined for each tissue and corrected for both the injected activity and % ID present at the injection site (the tail). Then, the tumor and the organs were placed in a petri dish and ex vivo optical imaging was performed with the IVIS Spectrum system (Perkin Elmer, Waltham, MA, USA) using the following settings for all measurements: FOV 19.5 cm, medium binning, f2, 60 s exposure with an excitation/emission filter of 646 nm/662 nm. Living Image version 4.5.2 software (Perkin Elmer) was used to perform data analysis by drawing regions of interest around the organ/tissue to quantify the radiant efficiency {(photons/second/cm^2/steradian)/(μW/cm^2)}.

[4] = Ex vivo biodistribution in H69-tumor bearing mice; settings: mouse, in vivo; for tissue uptake at 4 h / tissue uptake at 1 h / tissue uptake at 24 h: n = 4; for tissue uptake at 1 h: 1 h p.i.; for tissue uptake at 24 h: 24 h p.i.
Procedure: as §1, §2

[5] = in vitro; settings: mouse, mouse serum, Mouse serum (%) intact labeled ligand, 37 °C, n = 1
Procedure: Stability of the radiolabeled peptide was monitored at 1, 4 and 24 h post incubation. The samples in PBS were directly analyzed by radio-HPLC without any pretreatment. However, samples in mouse serum were mixed with an equal volume of acetonitrile to precipitate the proteins. The solution was centrifuged for 10 min at 13,000 rpm and the supernatant was analyzed by radio-HPLC.

[6] = system: U2OS.SSTR2 cells; assay: Uptake/internalization studies in U2OS.SSTR2 cells; assay type: cell-based, human
Procedure: Cells were seeded in 6-well plates 24 h before the experiment (7 × 10^5 cells/well). […] The membrane-bound fraction was collected by incubating cells with an acid buffer (50 mM glycine, 100 mM NaCl, pH 2.8) for 10 min at rt. The internalized fraction was determined by lysing the cells with 1 M NaOH for 5 min at rt. Both fractions were measured in a gamma counter, and data were analyzed in GraphPad Prism v9 and expressed as percentage of added dose.

[7] = iv, 2 nmol, Uptake in Intestines

With C[C@@H](O)[C@H](NC(=O)[C@@H]1CSSC[C@H](NC(=O)[C@@H](Cc2ccccc2)NC(=O)CCC(C(=O)O)N2CCN(CC(=O)O)CCN(Cc3cccc(COCCCn4nnc5c4-c4ccccc4N(C(=O)CCCCCNC(=O)CCCCC[N+]4=C(C=CC=CC=C6N(C)c7ccc(S(=O)(=O)[O-])cc7C6(C)C)C(C)(C)c6cc(S(=O)(=O)O)ccc64)Cc4ccccc4-5)n3)CCN(CC(=O)O)CC2)C(=O)N[C@@H](Cc2ccc(O)cc2)C(=O)N[C@H](Cc2c[nH]c3ccccc23)C(=O)N[C@@H](CCCCN)C(=O)N[C@@H]([C@@H](C)O)C(=O)N1)C(=O)O (some centres unmarked) [[^111In]In-eTFC-01, metal not drawn] the LogD7.4 ([1]; n-octanol/PBS pH 7.4, n = 3) was “negative”, the logD ([1]; pH 7.4) was -0.7 ± 0.06 and the “Degradation in PBS buffer” value ([2]; up to 24 h) was “No degradation”. The “PBS (%) intact labeled ligand” value ([2]; 1 h) was 99.0%, the “PBS (%) intact labeled ligand” value ([2]; 4 h) was 99.0% and the “PBS (%) intact labeled ligand” value ([2]; 24 h) was 99.0%. The “Tumor uptake lower than the tumor uptake of [111In]In-DOTA-TATE” value ([3]; 1 h p.i.) was 54%, the “Tumor uptake reduction by co-injection of an excess of DOTA-TATE” value ([3]; 4 h p.i., compared to the unblocked group) was 40% and the “Tumor uptake lower than the tumor uptake of [111In]In-DOTA-TATE” value ([3]; 24 h p.i.) was 31%. It also gave a tissue uptake ([4]; 2 nmol, Tumor uptake, from 1 h to 24 h post injection) of 2 to 3 %ID/g, a tissue uptake at 4 h ([4]; Uptake in Blood, 4 h block (co-injected 50 nmol DOTA-TATE)) of 4.11 ± 0.16 %ID/g and a tissue uptake at 4 h ([4]; Uptake in Bones, 4 h block (co-injected 50 nmol DOTA-TATE)) of 1.53 ± 0.27 %ID/g. The tissue uptake at 4 h ([4]; Uptake in Heart, 4 h block (co-injected 50 nmol DOTA-TATE)) was 2.14 ± 0.46 %ID/g, the tissue uptake at 4 h ([4]; Uptake in Intestines, 4 h block (co-injected 50 nmol DOTA-TATE)) was 1.48 ± 0.13 %ID/g and the tissue uptake at 4 h ([4]; Uptake in Kidneys, 4 h block (co-injected 50 nmol DOTA-TATE)) was 46.6 ± 6.34 %ID/g. For the same molecule, the tissue uptake at 4 h ([4]; Uptake in Liver, 4 h block (co-injected 50 nmol DOTA-TATE)) was 10.6 ± 1.55 %ID/g, the tissue uptake at 4 h ([4]; Uptake in Lungs, 4 h block (co-injected 50 nmol DOTA-TATE)) was 6.05 ± 0.59 %ID/g and the tissue uptake at 4 h ([4]; Uptake in Muscle, 4 h block (co-injected 50 nmol DOTA-TATE)) was 0.67 ± 0.08 %ID/g. For the same molecule, the tissue uptake at 4 h ([4]; Uptake in Pancreas, 4 h block (co-injected 50 nmol DOTA-TATE)) was 0.95 ± 0.23 %ID/g, the tissue uptake at 4 h ([4]; Uptake in Skin, 4 h block (co-injected 50 nmol DOTA-TATE)) was 3.61 ± 0.4 %ID/g and the tissue uptake at 4 h ([4]; Uptake in Spleen, 4 h block (co-injected 50 nmol DOTA-TATE)) was 3.97 ± 0.9 %ID/g. The tissue uptake at 4 h ([4]; Uptake in Stomach, 4 h block (co-injected 50 nmol DOTA-TATE)) was 0.43 ± 0.12 %ID/g, the tissue uptake at 4 h ([4]; Uptake in Tumor, 4 h block (co-injected 50 nmol DOTA-TATE)) was 1.81 ± 0.14 %ID/g and the tissue uptake at 1 h ([4]; iv, 2 nmol, Uptake in Blood) was 6.96 ± 0.68 %ID/g. For the same molecule, the tissue uptake at 4 h ([4]; iv, 2 nmol, Uptake in Blood, 4 h p.i.) was 4.7 ± 0.24 %ID/g, the tissue uptake at 24 h ([4]; iv, 2 nmol, Uptake in Blood) was 0.64 ± 0.11 %ID/g and the tissue uptake at 1 h ([4]; iv, 2 nmol, Uptake in Bones) was 2.29 ± 0.17 %ID/g. It also gave a tissue uptake at 4 h ([4]; iv, 2 nmol, Uptake in Bones, 4 h p.i.) of 1.7 ± 0.23 %ID/g, a tissue uptake at 24 h ([4]; iv, 2 nmol, Uptake in Bones) of 0.98 ± 0.21 %ID/g and a tissue uptake at 1 h ([4]; iv, 2 nmol, Uptake in Heart) of 4.14 ± 0.76 %ID/g. It also gave a tissue uptake at 4 h ([4]; iv, 2 nmol, Uptake in Heart, 4 h p.i.) of 2.5 ± 0.17 %ID/g, a tissue uptake at 24 h ([4]; iv, 2 nmol, Uptake in Heart) of 0.74 ± 0.12 %ID/g and a tissue uptake at 1 h [4, 7] of 1.85 ± 0.24 %ID/g. It also gave a tissue uptake at 4 h ([4]; iv, 2 nmol, Uptake in Intestines, 4 h p.i.) of 1.85 ± 0.24 %ID/g, a tissue uptake at 24 h [4, 7] of 0.44 ± 0.09 %ID/g and a tissue uptake at 1 h ([4]; iv, 2 nmol, Uptake in Kidneys) of 33.2 ± 3.27 %ID/g. For the same molecule, the tissue uptake at 4 h ([4]; iv, 2 nmol, Uptake in Kidneys, 4 h p.i.) was 36.6 ± 2.02 %ID/g, the tissue uptake at 24 h ([4]; iv, 2 nmol, Uptake in Kidneys) was 30.6 ± 5.9 %ID/g and the tissue uptake at 1 h ([4]; iv, 2 nmol, Uptake in Liver) was 8.88 ± 0.9 %ID/g. For the same molecule, the tissue uptake at 24 h ([4]; iv, 2 nmol, Uptake in Liver) was 6.03 ± 1.14 %ID/g, the tissue uptake at 1 h ([4]; iv, 2 nmol, Uptake in Lungs) was 8.07 ± 1.18 %ID/g and the tissue uptake at 4 h ([4]; iv, 2 nmol, Uptake in Lungs, 4 h p.i.) was 7.71 ± 0.87 %ID/g. It also gave a tissue uptake at 24 h ([4]; iv, 2 nmol, Uptake in Lungs) of 1.75 ± 0.19 %ID/g, a tissue uptake at 1 h ([4]; iv, 2 nmol, Uptake in Muscle) of 1.07 ± 0.1 %ID/g and a tissue uptake at 4 h ([4]; iv, 2 nmol, Uptake in Muscle, 4 h p.i.) of 0.73 ± 0.08 %ID/g. For the same molecule, the tissue uptake at 24 h ([4]; iv, 2 nmol, Uptake in Muscle) was 0.26 ± 0.05 %ID/g, the tissue uptake at 1 h ([4]; iv, 2 nmol, Uptake in Pancreas) was 1.99 ± 0.26 %ID/g and the tissue uptake at 4 h ([4]; iv, 2 nmol, Uptake in Pancreas, 4 h p.i.) was 1.28 ± 0.17 %ID/g. It also gave a tissue uptake at 24 h ([4]; iv, 2 nmol, Uptake in Pancreas) of 0.64 ± 0.18 %ID/g, a tissue uptake at 1 h ([4]; iv, 2 nmol, Uptake in Skin) of 5.73 ± 1.28 %ID/g and a tissue uptake at 4 h ([4]; iv, 2 nmol, Uptake in Skin, 4 h p.i.) of 3.78 ± 0.35 %ID/g. The tissue uptake at 24 h ([4]; iv, 2 nmol, Uptake in Skin) was 1.54 ± 0.35 %ID/g, the tissue uptake at 1 h ([4]; iv, 2 nmol, Uptake in Spleen) was 5.09 ± 0.72 %ID/g and the tissue uptake at 4 h ([4]; iv, 2 nmol, Uptake in Spleen, 4 h p.i.) was 3.58 ± 1.02 %ID/g. For the same molecule, the tissue uptake at 24 h ([4]; iv, 2 nmol, Uptake in Spleen) was 2.03 ± 0.43 %ID/g, the tissue uptake at 1 h ([4]; iv, 2 nmol, Uptake in Stomach) was 2.66 ± 0.49 %ID/g and the tissue uptake at 4 h ([4]; iv, 2 nmol, Uptake in Stomach, 4 h p.i.) was 1.41 ± 0.19 %ID/g. The tissue uptake at 24 h ([4]; iv, 2 nmol, Uptake in Stomach) was 0.77 ± 0.22 %ID/g, the tissue uptake at 1 h ([4]; iv, 2 nmol, Uptake in Tumor) was 2.56 ± 0.38 %ID/g and the tissue uptake at 4 h ([4]; iv, 2 nmol, Uptake in Tumor, 4 h p.i.) was 3.04 ± 0.49 %ID/g. For the same molecule, the tissue uptake at 24 h ([4]; iv, 2 nmol, Uptake in Tumor) was 2.21 ± 0.31 %ID/g, the remaining at 1 h ([5]; 1 h) was 97.9% and the remaining at 4 h ([5]; 4 h) was 86%. For the same molecule, the remaining at 24 h ([5]; 24 h) was 71%, the “Internalized fraction of radioactivity” value ([6]; 10^-9 M, 90 min, 37 °C) was 97% and the Total uptake ([6]; 10^-9 M, 90 min, 37 °C, % of added dose per 1,000,000 cells, n = 3) was 20.87 ± 1.92 % AD. For the same molecule, the “Cell uptake with excess of unlabeled DOTA-TATE” value ([6]; 50-fold excess DOTA-TATE) was “almost completely blocked” and the “Drop of the cell uptake in presence of an excess of DOTA-TATE” value ([6]; 50-fold excess DOTA-TATE) was 95%.
